In patent US20030165995A1 (Takeda / Millennium, published 2003):

Key:
[1] = molecular target: T1, CCR6 expressed on transfected L1.2 cells (UniProt P51684 1-374, limits assumed); test: 125I-labeled SExCkine binding to receptor transfectants
T1 construct: whole, on cells
T1 sequence (looked up): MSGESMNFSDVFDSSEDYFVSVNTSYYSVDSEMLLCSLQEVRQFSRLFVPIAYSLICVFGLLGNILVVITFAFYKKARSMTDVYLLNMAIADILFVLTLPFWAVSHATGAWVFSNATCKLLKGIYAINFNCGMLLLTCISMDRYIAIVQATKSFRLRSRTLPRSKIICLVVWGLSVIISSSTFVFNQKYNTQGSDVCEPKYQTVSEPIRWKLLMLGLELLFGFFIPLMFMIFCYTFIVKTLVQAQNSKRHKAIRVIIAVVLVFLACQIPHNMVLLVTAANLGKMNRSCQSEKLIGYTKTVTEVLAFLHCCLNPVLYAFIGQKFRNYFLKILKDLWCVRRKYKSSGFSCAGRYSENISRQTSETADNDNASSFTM

[2] = molecular target: T2, CCR7 expressed on transfected L1.2 cells (UniProt P32248 25-378, limits assumed); test: as above
T2 construct: whole, on cells
T2 sequence (looked up): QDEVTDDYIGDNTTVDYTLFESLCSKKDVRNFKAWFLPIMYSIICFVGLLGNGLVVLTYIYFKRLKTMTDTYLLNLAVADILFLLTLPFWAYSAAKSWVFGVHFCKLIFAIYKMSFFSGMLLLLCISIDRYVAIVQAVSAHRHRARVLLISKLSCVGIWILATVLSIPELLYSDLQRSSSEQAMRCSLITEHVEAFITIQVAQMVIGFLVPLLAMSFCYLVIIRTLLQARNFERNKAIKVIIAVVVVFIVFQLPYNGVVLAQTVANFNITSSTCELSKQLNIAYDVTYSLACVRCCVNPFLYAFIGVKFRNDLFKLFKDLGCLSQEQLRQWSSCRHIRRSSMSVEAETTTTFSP

[3] = molecular target: T3, human Bonzo with N-terminal hemagglutinin (HA) epitope, expressed on transfected L1.2 cells (Bonzo/L1.2 cells) (human, UniProt O00574 1-342); test: Scatchard analysis of 125I-labeled SExCkine binding to Bonzo/L1.2 cells
T3 construct: also called CXCR6; STRL33
T3 sequence: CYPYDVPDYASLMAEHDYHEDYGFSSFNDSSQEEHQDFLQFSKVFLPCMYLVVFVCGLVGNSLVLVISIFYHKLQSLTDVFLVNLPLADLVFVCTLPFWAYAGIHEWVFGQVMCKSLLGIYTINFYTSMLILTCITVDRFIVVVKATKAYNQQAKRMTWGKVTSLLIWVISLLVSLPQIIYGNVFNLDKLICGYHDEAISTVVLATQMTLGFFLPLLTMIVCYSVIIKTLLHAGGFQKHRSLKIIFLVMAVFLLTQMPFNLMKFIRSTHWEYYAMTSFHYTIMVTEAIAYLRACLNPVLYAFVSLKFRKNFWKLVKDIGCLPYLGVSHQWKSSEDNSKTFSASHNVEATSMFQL
Protocol: (§1) The amount of ¹²⁵I-labeled SExCkine (CXCL16) that bound to Bonzo/L1.2 cells was determined by scintillation counting, and % inhibition of binding (0% inhibition is the amount of binding in the absence of unlabeled SExCkine (CXCL16)) was calculated. […] FIG. 43B depicts the Scatchard analysis of the binding data.
(§2) Exponentially-growing Bonzo/L1.2 transfectants were counted on the day of the assay and were resuspended in binding assay buffer (BAB) (10 mM HEPES/1 mM CaCl₂/5 mM MgCl₂/0.5% BSA/0.05% Na Azide) at a density of 2.5×10⁶ cells/mL. Purified recombinant SExCkine (CXCL16) was labeled with I¹²⁵ using a sodium iodine method (Amersham, Arlington Heights, Ill.) and was diluted to 4 nM in BAB. Cold (unlabeled) SExCkine (in PBS at 5.3 μM) was diluted for competition in BAB to 0.4 nM, 2 nM, 4 nM, 20 nM, 40 nM, and 400 nM. […] For calculation of total I¹²⁵ input, 50 μL of cells was added to 25 μL of I¹²⁵I-labeled SExCkine and 25 μL BAB. All tubes were incubated for 1 hour at room temperature, after which time the cells were spun down at 3500 rpm and washed five times in BAB+0.5 M NaCl. After the final wash, the cell pellet was resuspended in 100 μL of wash buffer and the I¹²⁵ counts were calculated using a Cobra II auto-gamma scintillation counter (Packard, Downers Grove, Ill.) along with the total input sample. Binding data was calculated using a program written in Excel.

[4] = molecular target: T3, human Bonzo with N-terminal …; test: competition with 1 nM 125I-labeled SExCkine for binding to Bonzo/L1.2 cells, gamma counting
Protocol: as §1, §2

B1: purified recombinant His-tagged SExCkine (entire predicted extracellular domain, amino acid residues 1 to 202 of SEQ ID NO:4) (ligand)
chain: NEGSVTGSCYCGKRISSDSPPSVQFMNRLRKHLRAYHRCLYYTRFQLLSWSVCGGNKDPWVQELMSCLDLKECGHAYSGIVAHQKHLLPTSPPISQASEGASSDIHTPAQMLLSTLQSTQRPTLPVGSLSSDKELTRPNETTIHTAGHSLAVGPEAGENQKQPEKNAGPTART
modifications: heavily glycosylated; iodinated with 125I where used as tracer
notes: Expressed in 293T cells, purified on wheat germ agglutinin and NiNTA; also called purified recombinant SExCkine (CXCL16); recombinant His-tagged SExCkine protein; not shown: C-terminal His tag from the pEF-His vector
Question: Does B1 bind [1]?
Answer: no binding

Question: Does B1 bind [2]?
Answer: no binding

Question: What about the Kd [3] of the same binder?
Answer: 1 nM

Question: What about the IC50 [4] of the same binder?
Answer: 1 nM
